One test deals with CD28 (human) (UniProt P10747). Briefly: cell-based or functional assay.
The next test concerns the target PD-L1 (human) (UniProt Q9NZQ7). Briefly: cell-based or functional assay.

Chain of PD-L1 (human) (Q9NZQ7 19-290): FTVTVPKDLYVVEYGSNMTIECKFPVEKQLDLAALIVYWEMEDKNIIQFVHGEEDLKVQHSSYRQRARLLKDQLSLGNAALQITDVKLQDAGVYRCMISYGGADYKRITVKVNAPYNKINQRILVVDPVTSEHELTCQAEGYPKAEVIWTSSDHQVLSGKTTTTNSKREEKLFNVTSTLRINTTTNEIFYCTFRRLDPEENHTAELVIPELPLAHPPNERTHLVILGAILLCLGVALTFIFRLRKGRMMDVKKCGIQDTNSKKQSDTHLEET

In the test with CD28 (human), “variant CD80 IgV-Fc (effector) E35D/M43L/L70M (Fc fusion)” came in with an IL-2 release, primary T cells; K562/OKT3 (No PD-L1); 1 nM of 8020; an IL-2 release, primary T cells; K562/OKT3 (No PD-L1); 10 nM of 7710; an IL-2 release, primary T cells; K562/OKT3 (No PD-L1); 100 nM of 10500; an RLU, Jurkat/IL2 reporter; K562/OKT3 aAPC, FcR Dependent Cross-Linking (No PD-L1); 0.6 nM of 1350 RLU. In the test with CD28 (human), this substance showed an RLU, Jurkat/IL2 reporter; K562/OKT3 aAPC, FcR Dependent Cross-Linking (No PD-L1); 1.9 nM of 1340 RLU; an RLU, Jurkat/IL2 reporter; K562/OKT3 aAPC, FcR Dependent Cross-Linking (No PD-L1); 5.6 nM of 1400 RLU; an RLU, Jurkat/IL2 reporter; K562/OKT3 aAPC, FcR Dependent Cross-Linking (No PD-L1); 16.7 nM of 1340 RLU; an RLU, Jurkat/IL2 reporter; K562/OKT3 aAPC, FcR Dependent Cross-Linking (No PD-L1); 50 nM of 1570 RLU. In the test with PD-L1 (human), the RLU, Jurkat/IL2 reporter; K562/OKT3/PD-L1 aAPC, Combination of FcR and/or PD-L1 Dependent Cross-Linking; 0.6 nM worked out at 1020 RLU; the RLU, Jurkat/IL2 reporter; K562/OKT3/PD-L1 aAPC, Combination of FcR and/or PD-L1 Dependent Cross-Linking; 1.9 nM was determined as 1250 RLU; the RLU, Jurkat/IL2 reporter; K562/OKT3/PD-L1 aAPC, Combination of FcR and/or PD-L1 Dependent Cross-Linking; 5.6 nM came to 1620 RLU; the RLU, Jurkat/IL2 reporter; K562/OKT3/PD-L1 aAPC, Combination of FcR and/or PD-L1 Dependent Cross-Linking; 16.7 nM is 2050 RLU. Further, the RLU, Jurkat/IL2 reporter; K562/OKT3/PD-L1 aAPC, Combination of FcR and/or PD-L1 Dependent Cross-Linking; 50 nM with PD-L1 (human) is 2780 RLU.
In the test with CD28 (human), “variant CD80 IgV-Fc (effector) E35D/M47I (Fc fusion)” registered an IL-2 release, primary T cells; K562/OKT3 (No PD-L1); 1 nM of 11100; an IL-2 release, primary T cells; K562/OKT3 (No PD-L1); 10 nM of 21600; an IL-2 release, primary T cells; K562/OKT3 (No PD-L1); 100 nM of 27200; an RLU, Jurkat/IL2 reporter; K562/OKT3 aAPC, FcR Dependent Cross-Linking (No PD-L1); 0.6 nM of 1780 RLU. In the test with CD28 (human), this substance displayed an RLU, Jurkat/IL2 reporter; K562/OKT3 aAPC, FcR Dependent Cross-Linking (No PD-L1); 1.9 nM of 2130 RLU; an RLU, Jurkat/IL2 reporter; K562/OKT3 aAPC, FcR Dependent Cross-Linking (No PD-L1); 5.6 nM of 3650 RLU; an RLU, Jurkat/IL2 reporter; K562/OKT3 aAPC, FcR Dependent Cross-Linking (No PD-L1); 16.7 nM of 5790 RLU; an RLU, Jurkat/IL2 reporter; K562/OKT3 aAPC, FcR Dependent Cross-Linking (No PD-L1); 50 nM of 7140 RLU. In addition, in the test with PD-L1 (human), the RLU, Jurkat/IL2 reporter; K562/OKT3/PD-L1 aAPC, Combination of FcR and/or PD-L1 Dependent Cross-Linking; 0.6 nM was 2830 RLU; the RLU, Jurkat/IL2 reporter; K562/OKT3/PD-L1 aAPC, Combination of FcR and/or PD-L1 Dependent Cross-Linking; 1.9 nM came to 3600 RLU; the RLU, Jurkat/IL2 reporter; K562/OKT3/PD-L1 aAPC, Combination of FcR and/or PD-L1 Dependent Cross-Linking; 5.6 nM turned out to be 4700 RLU; the RLU, Jurkat/IL2 reporter; K562/OKT3/PD-L1 aAPC, Combination of FcR and/or PD-L1 Dependent Cross-Linking; 16.7 nM was determined as 5320 RLU. For the same substance, the RLU, Jurkat/IL2 reporter; K562/OKT3/PD-L1 aAPC, Combination of FcR and/or PD-L1 Dependent Cross-Linking; 50 nM with PD-L1 (human) amounted to 5700 RLU.
In the test with CD28 (human), “variant CD80 IgV-Fc (effector) E35D/M47I/L70M (Fc fusion)” came in with an IL-2 release, primary T cells; K562/OKT3 (No PD-L1); 1 nM of 15700; an IL-2 release, primary T cells; K562/OKT3 (No PD-L1); 10 nM of 26000; an IL-2 release, primary T cells; K562/OKT3 (No PD-L1); 100 nM of 25300; an RLU, Jurkat/IL2 reporter; K562/OKT3 aAPC, FcR Dependent Cross-Linking (No PD-L1); 0.6 nM of 1610 RLU. In the test with CD28 (human), this substance displayed an RLU, Jurkat/IL2 reporter; K562/OKT3 aAPC, FcR Dependent Cross-Linking (No PD-L1); 1.9 nM of 2520 RLU; an RLU, Jurkat/IL2 reporter; K562/OKT3 aAPC, FcR Dependent Cross-Linking (No PD-L1); 5.6 nM of 4230 RLU; an RLU, Jurkat/IL2 reporter; K562/OKT3 aAPC, FcR Dependent Cross-Linking (No PD-L1); 16.7 nM of 5370 RLU; an RLU, Jurkat/IL2 reporter; K562/OKT3 aAPC, FcR Dependent Cross-Linking (No PD-L1); 50 nM of 5780 RLU. Also, in the test with PD-L1 (human), the RLU, Jurkat/IL2 reporter; K562/OKT3/PD-L1 aAPC, Combination of FcR and/or PD-L1 Dependent Cross-Linking; 0.6 nM was 2240 RLU; the RLU, Jurkat/IL2 reporter; K562/OKT3/PD-L1 aAPC, Combination of FcR and/or PD-L1 Dependent Cross-Linking; 1.9 nM is 2690 RLU; the RLU, Jurkat/IL2 reporter; K562/OKT3/PD-L1 aAPC, Combination of FcR and/or PD-L1 Dependent Cross-Linking; 5.6 nM is 3650 RLU; the RLU, Jurkat/IL2 reporter; K562/OKT3/PD-L1 aAPC, Combination of FcR and/or PD-L1 Dependent Cross-Linking; 16.7 nM turned out to be 3910 RLU. Besides, in the test with PD-L1 (human), the RLU, Jurkat/IL2 reporter; K562/OKT3/PD-L1 aAPC, Combination of FcR and/or PD-L1 Dependent Cross-Linking; 50 nM was determined as 3870 RLU.
As for “variant CD80 IgV-Fc (effector) E35D/M47L (Fc fusion)”, in the test with CD28 (human), the IL-2 release, primary T cells; K562/OKT3 (No PD-L1); 1 nM stood at 14600; the IL-2 release, primary T cells; K562/OKT3 (No PD-L1); 10 nM is 23600; the IL-2 release, primary T cells; K562/OKT3 (No PD-L1); 100 nM turned out to be 26800; the RLU, Jurkat/IL2 reporter; K562/OKT3 aAPC, FcR Dependent Cross-Linking (No PD-L1); 0.6 nM was 2120 RLU. Further, in the test with CD28 (human), the RLU, Jurkat/IL2 reporter; K562/OKT3 aAPC, FcR Dependent Cross-Linking (No PD-L1); 1.9 nM was found to be 3040 RLU; the RLU, Jurkat/IL2 reporter; K562/OKT3 aAPC, FcR Dependent Cross-Linking (No PD-L1); 5.6 nM worked out at 5620 RLU; the RLU, Jurkat/IL2 reporter; K562/OKT3 aAPC, FcR Dependent Cross-Linking (No PD-L1); 16.7 nM amounted to 7740 RLU; the RLU, Jurkat/IL2 reporter; K562/OKT3 aAPC, FcR Dependent Cross-Linking (No PD-L1); 50 nM was 8680 RLU. Besides, in the test with PD-L1 (human), the RLU, Jurkat/IL2 reporter; K562/OKT3/PD-L1 aAPC, Combination of FcR and/or PD-L1 Dependent Cross-Linking; 0.6 nM stood at 2780 RLU; the RLU, Jurkat/IL2 reporter; K562/OKT3/PD-L1 aAPC, Combination of FcR and/or PD-L1 Dependent Cross-Linking; 1.9 nM was 3850 RLU; the RLU, Jurkat/IL2 reporter; K562/OKT3/PD-L1 aAPC, Combination of FcR and/or PD-L1 Dependent Cross-Linking; 5.6 nM amounted to 4730 RLU; the RLU, Jurkat/IL2 reporter; K562/OKT3/PD-L1 aAPC, Combination of FcR and/or PD-L1 Dependent Cross-Linking; 16.7 nM turned out to be 5410 RLU. In the test with PD-L1 (human), the RLU, Jurkat/IL2 reporter; K562/OKT3/PD-L1 aAPC, Combination of FcR and/or PD-L1 Dependent Cross-Linking; 50 nM came out at 5040 RLU.
For “variant CD80 IgV-Fc (effector) E35G/K54E/A71D/L72P (Fc fusion)”, in the test with CD28 (human), the IL-2 release, primary T cells; K562/OKT3 (No PD-L1); 1 nM worked out at 7030; the IL-2 release, primary T cells; K562/OKT3 (No PD-L1); 10 nM was determined as 7900; the RLU, Jurkat/IL2 reporter; K562/OKT3 aAPC, FcR Dependent Cross-Linking (No PD-L1); 0.6 nM was 1340 RLU; the RLU, Jurkat/IL2 reporter; K562/OKT3 aAPC, FcR Dependent Cross-Linking (No PD-L1); 1.9 nM was found to be 1370 RLU. Moreover, in the test with CD28 (human), the RLU, Jurkat/IL2 reporter; K562/OKT3 aAPC, FcR Dependent Cross-Linking (No PD-L1); 5.6 nM was 1380 RLU; the RLU, Jurkat/IL2 reporter; K562/OKT3 aAPC, FcR Dependent Cross-Linking (No PD-L1); 16.7 nM turned out to be 1430 RLU; the RLU, Jurkat/IL2 reporter; K562/OKT3 aAPC, FcR Dependent Cross-Linking (No PD-L1); 50 nM was 1510 RLU. For the same substance, in the test with PD-L1 (human), the RLU, Jurkat/IL2 reporter; K562/OKT3/PD-L1 aAPC, Combination of FcR and/or PD-L1 Dependent Cross-Linking; 0.6 nM was 689 RLU; the RLU, Jurkat/IL2 reporter; K562/OKT3/PD-L1 aAPC, Combination of FcR and/or PD-L1 Dependent Cross-Linking; 1.9 nM is 732 RLU; the RLU, Jurkat/IL2 reporter; K562/OKT3/PD-L1 aAPC, Combination of FcR and/or PD-L1 Dependent Cross-Linking; 5.6 nM amounted to 735 RLU; the RLU, Jurkat/IL2 reporter; K562/OKT3/PD-L1 aAPC, Combination of FcR and/or PD-L1 Dependent Cross-Linking; 16.7 nM came to 701 RLU. Further, in the test with PD-L1 (human), the RLU, Jurkat/IL2 reporter; K562/OKT3/PD-L1 aAPC, Combination of FcR and/or PD-L1 Dependent Cross-Linking; 50 nM was 805 RLU.
In the test with CD28 (human), “variant CD80 IgV-Fc (effector) H18Y/A26T/E35D/A71D/L85Q (Fc fusion)” showed an IL-2 release, primary T cells; K562/OKT3 (No PD-L1); 10 nM of 20500; an IL-2 release, primary T cells; K562/OKT3 (No PD-L1); 100 nM of 20600; an RLU, Jurkat/IL2 reporter; K562/OKT3 aAPC, FcR Dependent Cross-Linking (No PD-L1); 0.6 nM of 2080 RLU; an RLU, Jurkat/IL2 reporter; K562/OKT3 aAPC, FcR Dependent Cross-Linking (No PD-L1); 1.9 nM of 2810 RLU. In addition, in the test with CD28 (human), the RLU, Jurkat/IL2 reporter; K562/OKT3 aAPC, FcR Dependent Cross-Linking (No PD-L1); 5.6 nM came to 4550 RLU; the RLU, Jurkat/IL2 reporter; K562/OKT3 aAPC, FcR Dependent Cross-Linking (No PD-L1); 16.7 nM was 6960 RLU; the RLU, Jurkat/IL2 reporter; K562/OKT3 aAPC, FcR Dependent Cross-Linking (No PD-L1); 50 nM turned out to be 8750 RLU. In addition, in the test with PD-L1 (human), the RLU, Jurkat/IL2 reporter; K562/OKT3/PD-L1 aAPC, Combination of FcR and/or PD-L1 Dependent Cross-Linking; 0.6 nM is 1160 RLU; the RLU, Jurkat/IL2 reporter; K562/OKT3/PD-L1 aAPC, Combination of FcR and/or PD-L1 Dependent Cross-Linking; 1.9 nM turned out to be 1820 RLU; the RLU, Jurkat/IL2 reporter; K562/OKT3/PD-L1 aAPC, Combination of FcR and/or PD-L1 Dependent Cross-Linking; 5.6 nM was found to be 3120 RLU; the RLU, Jurkat/IL2 reporter; K562/OKT3/PD-L1 aAPC, Combination of FcR and/or PD-L1 Dependent Cross-Linking; 16.7 nM came to 4330 RLU. Further, in the test with PD-L1 (human), the RLU, Jurkat/IL2 reporter; K562/OKT3/PD-L1 aAPC, Combination of FcR and/or PD-L1 Dependent Cross-Linking; 50 nM stood at 5220 RLU.

For the origin of these results see US20210130436A1.
